Assay results as given in paper PMC3829318.

Assays:
[1] = Golgi processing of remaining glycopeptides, LC-ESI-MS, N. benthamiana; settings: glycan lost; control: wild-type KOR1-Fc-GFP
[2] = anti-KOR1 immunoblot of Sf21 culture medium; settings: glycan lost; control: rKOR1 WT
[3] = transient expression in N. benthamiana leaves; settings: glycan lost; control: wild-type KOR1-Fc-GFP
[4] = CMC hydrolysis after non-denaturing deglycosylation; settings: glycan lost; control: untreated rKOR1 WT
[5] = CMC hydrolysis after non-denaturing Endo H
[6] = glycan lost, control: Endo H-digested rKOR1 WT

B1: KORRIGAN1 (KOR1): N324Q/N345Q (protein)
parent chain: MYGRDPWGGPLEINTADSATDDDRSRNLNDLDRAALSRPLDETQQSWLLGPTEQKKKKYVDLGCIIVSRKIFVWTVGTLVAAALLAGFITLIVKTVPRHHPKTPPPDNYTIALHKALKFFNAQKSGKLPKHNNVSWRGNSGLQDGKGETGSFYKDLVGGYYDAGDAIKFNFPMAYAMTMLSWSVIEYSAKYEAAGELTHVKELIKWGTDYFLKTFNSTADSIDDLVSQVGSGNTDDGNTDPNDHYCWMRPEDMDYKRPVTTCNGGCSDLAAEMAAALASASIVFKDNKEYSKKLVHGAKVVYQFGRTRRGRYSAGTAESSKFYNSSMYWDEFIWGGAWMYYATGNVTYLNLITQPTMAKHAGAFWGGPYYGVFSWDNKLAGAQLLLSRLRLFLSPGYPYEEILRTFHNQTSIVMCSYLPIFNKFNRTNGGLIELNHGAPQPLQYSVNAAFLATLYSDYLDAADTPGWYCGPNFYSTSVLRDFARSQIDYILGKNPRKMSYVVGFGTKYPRHVHHRGASIPKNKVKYNCKGGWKWRDSKKPNPNTIEGAMVAGPDKRDGYRDVRMNYNYTEPTLAGNAGLVAALVALSGEEEATGKIDKNTIFSAVPPLFPTPPPPPAPWKP
- localisation_or_trafficking [1]: no change
- expression_or_secretion [2]: decreases
- expression_or_secretion [3]: no change

B2: KORRIGAN1 (KOR1): Endo H (protein)
parent chain: B1 parent chain
- enzymatic_activity, percent_of_wt [4]: decreases, loss of 20–30% vs 100

B3: KORRIGAN1 (KOR1): N216Q + Endo H (protein)
parent chain: B1 parent chain
- enzymatic_activity [5, 6]: no change

B4: KORRIGAN1 (KOR1): N345Q + Endo H (protein)
parent chain: B1 parent chain
- enzymatic_activity [5, 6]: no change

B5: KORRIGAN1 (KOR1): N408Q + Endo H (protein)
parent chain: B1 parent chain
- enzymatic_activity [5, 6]: no change

B6: KORRIGAN1 (KOR1): N324Q + Endo H (protein)
parent chain: B1 parent chain
- enzymatic_activity [5, 6]: no change

B7: KORRIGAN1 (KOR1): kifunensine (rKOR1 KIF) + Endo H (protein)
parent chain: B1 parent chain
- enzymatic_activity ([5]; glycan changed form, control: Endo H-treated rKOR1 WT): decreases

B8: KORRIGAN1 (KOR1): PNGase F (protein)
parent chain: B1 parent chain
- enzymatic_activity, percent_of_wt [4]: decreases, ∼50 vs 100

B9: KORRIGAN1 (KOR1): N425Q + Endo H (protein)
parent chain: B1 parent chain
- enzymatic_activity [5, 6]: no change
